# US20220152103A1 (LEUCID BIO, published 2022)
# B1: ICR12 rat anti-human HER2 antibody (antibody, V domains shown)
# VH: EVQLQESGPGLVKPSQSLSLTCSVTGYSITTDYWGWIRKFPGNKMEWMGYISYSGSTGYNPSLKSRISITRDTSKSQFFLQLNSVTTEDTATYYCARYSSLDYWGRGVMVAVSS
# VL: DVVMTQTPPSLSVAIGQSVSISCKSSQSLVYSDGKTYLHWLLQSPGRSPKRLIYQVSNLGSGVPDRFSGTGSQKDFTLKISRVEAEDLGVYYCAQTTHFPLTFGSGTKLEIK
# notes: VH and VL stand within it
# Molecular target: T1, human HER2 on tumor cells (MDA-MB-468-HER2++ cells transduced with human HER2; T47D cells) (human, UniProt P04626 23-1255)
# T1 construct: whole, on cells; also called ErbB2
# Assay: flow cytometry sorting of MDA-MB-468-HER2++ cells
binder,measurement,value
B1,binding result,binds
